From paper PMC9636508, “Reciprocal interactions among Cobll1, PACSIN2, and SH3BP1 regulate drug resistance in chronic myeloid leukemia” (Cancer Medicine, 2022)

Experiments:
[1] = target: T1, Cobll1-NT-f (N-terminal region of Cobll1, residues 1-410) (UniProt Q53SF7 1-410); experiment: SPR; PACSIN2 SH3 domain immobilised on a PEG chip by amine coupling (Reichert SR7500DC); 25°C; PBS (10 mM KH2PO4, 137 mM NaCl, 2.7 mM KCl, pH 7.4); 3 min association, 10 min dissociation; details: both partners purified
T1 construct: Cobll1 N-terminal region, residues 1-410, cloned into pGEX-4T-1; source: E. coli BL21-CodonPlus (DE3), purified (GST column, tag cleavage, ion exchange, Superdex)
T1 sequence (Q53SF7 1-410): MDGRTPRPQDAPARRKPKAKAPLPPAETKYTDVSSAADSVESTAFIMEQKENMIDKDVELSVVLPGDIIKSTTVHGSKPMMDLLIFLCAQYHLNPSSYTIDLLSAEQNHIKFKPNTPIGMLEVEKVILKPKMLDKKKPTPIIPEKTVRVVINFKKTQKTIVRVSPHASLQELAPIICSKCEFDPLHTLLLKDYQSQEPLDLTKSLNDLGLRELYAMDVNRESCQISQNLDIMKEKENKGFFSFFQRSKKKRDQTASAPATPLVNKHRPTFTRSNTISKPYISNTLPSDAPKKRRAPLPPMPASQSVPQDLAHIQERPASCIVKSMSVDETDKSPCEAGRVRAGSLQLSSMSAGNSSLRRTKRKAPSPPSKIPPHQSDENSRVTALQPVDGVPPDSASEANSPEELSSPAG

[2] = target: T2, SH3BP1-CT (C-terminal region of SH3BP1, residues 541-701) (UniProt Q9Y3L3 541-701); experiment: as above; details: both partners purified
T2 construct: SH3BP1 C-terminal region containing all proline-rich motifs, residues 541-701, cloned into pET-21a; also called SH3PB1-CT; source: E. coli BL21-CodonPlus (DE3), purified (Ni column, Superdex 75)
T2 sequence (looked up): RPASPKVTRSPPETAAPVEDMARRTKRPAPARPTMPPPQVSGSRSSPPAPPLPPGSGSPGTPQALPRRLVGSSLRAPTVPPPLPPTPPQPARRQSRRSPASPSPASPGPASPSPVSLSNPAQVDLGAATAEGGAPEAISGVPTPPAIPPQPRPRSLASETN

Kd [1]: 25.8 nM | Kd [2]: 2200 nM
B1: PACSIN2 SH3 domain (residues 430-486), purified (domain or fragment)
chain: not shown
notes: 15N- or 15N,13C-labelled for NMR, unlabelled for SPR; source: E. coli BL21-CodonPlus (DE3), purified (GST column, tag cleavage, ion exchange, Superdex)
